The target in assay [1] is T1, Recombinant human CD123 SP1 ECD-His tag protein (human, UniProt P26951 20-305).
T1 construct: bought from R&D Systems (#301-R3/CF); biotinylated for some assays; also called rhCD123 SP1; huCD123 ECD SP1
T1 sequence: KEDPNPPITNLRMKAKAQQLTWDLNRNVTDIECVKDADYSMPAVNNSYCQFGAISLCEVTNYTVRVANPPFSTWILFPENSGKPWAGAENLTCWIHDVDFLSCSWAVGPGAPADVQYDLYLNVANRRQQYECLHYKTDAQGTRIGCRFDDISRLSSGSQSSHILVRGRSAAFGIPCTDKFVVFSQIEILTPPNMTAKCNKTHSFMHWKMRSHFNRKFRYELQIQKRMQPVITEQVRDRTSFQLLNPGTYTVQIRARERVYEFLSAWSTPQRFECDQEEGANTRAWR
Nature of the assay: SPR Biacore 3000, captured Fab. As to the method: (§1) Kinetic studies were performed at 25° C. using a Biacore 3000 (BIAcore, Inc., now part of GE Healthcare). […] Sheep anti-Human Fd specific antibody (The binding site Prod # PC075) was covalently attached to two flow cells (normally 3 and 4) of the carboxymethyl dextran coated gold surfaces (CM-5 Chip, Biacore). The carboxymethyl groups of dextran were activated with N-Ethyl-N′-(3-Dimethylaminopropyl)carbodiimide (EDC) and N-hydroxysuccinimide (NHS). The antibodies were coupled at pH 4.5 in 10 mM sodium acetate. Any remaining reactive sites on the surface were blocked by reaction with ethanolamine. […] Association data was collected for 2 min followed by 10 min of dissociation. The surface was regenerated with 30 μL of 100 mM H3PO4 100 μL/min. All samples were prepared in D-PBS containing 3 mM EDTA and 0.005% surfactant P20. Data reported is the difference in SPR signal between the flow cell containing the captured antibody or Fab and a reference cell without captured antibody or Fab. Additional instrumental contributions to the signal were removed by subtraction of the data from the blank injection from the reference-subtracted signal. Data were performed in triplicate and analyzed by fitting association and dissociation phases at all concentrations (global fit) with a 1:1 binding model using the BIAevaluation software (BIAcore, Inc.). […] Data presented is an average.
In general terms: In SPR one partner is held on a chip, and binding of the other changes the refractive index at the surface.

The target of assay [2] is T2, Recombinant human CD123 SP2 ECD protein (human, UniProt P26951 101-303).
T2 construct: also called rhCD123 SP2; CD123 ECD SP2
T2 sequence: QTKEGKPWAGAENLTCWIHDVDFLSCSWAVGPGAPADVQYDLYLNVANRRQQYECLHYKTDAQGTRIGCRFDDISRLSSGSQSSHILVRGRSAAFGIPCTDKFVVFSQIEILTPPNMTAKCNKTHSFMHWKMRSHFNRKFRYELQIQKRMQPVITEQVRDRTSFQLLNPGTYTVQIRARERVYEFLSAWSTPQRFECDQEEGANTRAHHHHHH
The experiment in a line: SPR Biacore 3000, captured Fab; footnote: assay response is lower than expected. As for the experimental part:
as §1

Assay [3] concerns the target T1, Recombinant human CD123 SP1 ECD-His tag …. The experiment in a line: SPR ProteOn, captured mAb.
Assay [4] has as its target T3, cyno CD123 ECD displayed on pDisplay-transfected cells (cynomolgus monkey).
T3 construct: ECD anchored on the surface of stably transfected HEK293 cells; also called cynoCD123 SP1 cells; cynoCD123 cells
T3 chain: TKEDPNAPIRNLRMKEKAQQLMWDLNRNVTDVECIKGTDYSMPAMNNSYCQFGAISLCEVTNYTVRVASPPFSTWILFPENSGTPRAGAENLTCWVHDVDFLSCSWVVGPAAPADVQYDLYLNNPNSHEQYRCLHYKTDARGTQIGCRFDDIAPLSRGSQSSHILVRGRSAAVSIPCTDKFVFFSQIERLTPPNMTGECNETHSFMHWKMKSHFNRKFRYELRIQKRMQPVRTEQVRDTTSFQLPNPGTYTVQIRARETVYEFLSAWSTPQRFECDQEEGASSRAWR
The experiment in a line: MSD cell binding assay, signal 3x over background. As to the method: The object of the screening assay was to identify antibodies that bound to cells expressing hCD123 SP1 and SP2 as well as cross reactivity with cells expressing cynoCD123 SP1.
Cells were immobilized and phages were assayed in triplicate. […] 5000 cells per well were plated into a 384 well plate (MA6000, cat. L21XB, MSD) and allowed to adhere for 2 hr. Cells were then blocked with 20% FBS in PBS (Gibco) for 15 mins. Antibody supernatants were then added and left at RT for 1 hr. Cells were washed 3 times with PBS and a ruthenium labeled secondary antibody (Jackson Immuno Research) was then added at 1 μg/mL and incubated for 1 hr at room temperature. A further washing step was then applied and 35 μL per well of MSD Read buffer T (surfactant free) was then added and incubated for 30 min for detection. Plates were then read using Sector Imager 2400 (MSD). Data was normalized to controls and graphed using GraphPad Prism Version 5. A positive binder was determined to be a hit with a signal 3× greater than background (FIGS. 2A, B and C).

Assay [5] addresses IL3RA-PK (CD123 tagged with ProLink) in HEK293 IL3RA-PK/CSF2RB-EA cells (UniProt P26951 19-378). The experiment in a line: cell-based or functional assay.
Assay [6] addresses T3, cyno CD123 ECD displayed on …. The experiment in a line: MSD-CAT, cynoCD123 cells, assay-2. As for the experimental part: (§2) The MSD-CAT was developed in-house as a label-free method to determine affinity using intact cells in a high throughput format. […] Cell lines used were human pDisplay CD and cyno pDisplay CD123SP1. […] These samples were prepared in DMEM Glutamax medium containing 0.05% Azide, 1% BSA, 3 mM EDTA. The receptor numbers of (3.15-4.18)×10⁶ hCD123/cell and (4.78-9.24) 10⁶ cyCD123/cell were converted to M receptor concentration in the mixture on the basis of the volume of reaction, the cell density (cells/L) and the Avogadro's number. […] After equilibration the plate was centrifuged for 5 min ˜1000 rpm and free anti-CD3 detected on the supernatant.

Assay [7] concerns the target T4, human CD123 SP1 ECD displayed on pDisplay-transfected cells (human, UniProt P26951 20-305).
T4 construct: ECD anchored on the surface of stably transfected HEK293 cells by the PDGFR transmembrane domain; also called hCD123 SP1 cells; hCD123 cells
T4 sequence: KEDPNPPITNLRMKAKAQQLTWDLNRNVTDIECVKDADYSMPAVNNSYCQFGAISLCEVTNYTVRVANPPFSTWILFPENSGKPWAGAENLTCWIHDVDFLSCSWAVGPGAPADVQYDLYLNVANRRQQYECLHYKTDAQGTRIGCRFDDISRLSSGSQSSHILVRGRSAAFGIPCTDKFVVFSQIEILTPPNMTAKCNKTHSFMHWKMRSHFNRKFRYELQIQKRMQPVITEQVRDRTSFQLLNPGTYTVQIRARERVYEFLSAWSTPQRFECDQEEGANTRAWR
Nature of the assay: MSD-CAT, hCD123 cells, assay-2. As for the experimental part: (§3) After equilibration the plate was centrifuged for 5 min ˜1000 rpm and free anti-CD3 detected on the supernatant. […] The assay buffer was removed without washing and 50 μL/well of 0.7 μg/mL of biotinylated antigen in assay buffer were added to MSD plates and incubated overnight (˜16 hr at 4° C.). After overnight incubation, the plates were blocked by adding 150 μL/well of assay buffer without removing coating antigen, incubated for ˜1 hr at ambient temperature and washed 5 times with wash buffer (assay buffer without BSA). 50 μL/well of the supernantants from samples plate were transferred to antigen-coated plates, incubated for 60 min, and then washed three times with wash Buffer. After this 50 μL per well of ruthenium labeled detection antibody(anti-human H+L) were added and incubated for 1 hr. After 1 hr the plates were washed and 150 μL of MSD Read Buffer (prepared by diluting 1:4 of stock into d. H₂O) were added per well. The plates were read immediately on the MSD Sector Imager 6000 Reader for luminescence levels. ECL signal detected by MSD was expressed in term of % free antibody in the mixture and the data was analyzed to determine affinity using a user defined equation (derived from the law of mass action) introduced in Prism software.

The target in assay [8] is T3, cyno CD123 ECD displayed on …. The experiment in a line: MSD-CAT on pDisplay cells. As for the experimental part:
as §3

The target of assay [9] is T4, human CD123 SP1 ECD displayed on …. Nature of the assay: MSD-CAT, hCD123 cells, assay-1. As to the method:
as §3

Assay [10] deals with T2, Recombinant human CD123 SP2 ECD protein. The experiment in a line: SPR Biacore 3000, captured Fab. As to the method: as §1
Assay [11] addresses T3, cyno CD123 ECD displayed on …. The experiment in a line: MSD-CAT, cynoCD123 cells, assay-1. As for the experimental part:
as §2

The target in assay [12] is T5, human CD123 SP2 ECD displayed on pDisplay-transfected cells (human, UniProt P26951 101-305).
T5 construct: ECD anchored on the surface of stably transfected HEK293 cells; also called hCD123 SP2 cells; pDisplay CD123SP2
T5 sequence: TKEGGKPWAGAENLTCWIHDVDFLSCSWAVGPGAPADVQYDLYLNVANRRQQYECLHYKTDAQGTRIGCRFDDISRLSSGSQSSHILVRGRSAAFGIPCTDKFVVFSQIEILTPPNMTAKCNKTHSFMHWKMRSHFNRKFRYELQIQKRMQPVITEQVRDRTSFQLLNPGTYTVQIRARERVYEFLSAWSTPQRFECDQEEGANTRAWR
The experiment in a line: MSD cell binding on 293F pDisplay cells; fold change over background; parental 293F cells as control.

In assay [13] the target is T4, human CD123 SP1 ECD displayed on …. The assay is described as above.
Assay [14] deals with T3, cyno CD123 ECD displayed on …. The description is as above.

B1: I3RB121 (Fab, V domains shown)
VH: QVQLVQSGAEVKKPGSSVKVSCKASGGTFSSYAISWVRQAPGQGLEWMGGIIPIFGTANYAQKFQGRVTITADESTSTAYMELSSLRSEDTAVYYCARHLFWDAGPLDYWGQGTLVTVSS
VL: DIQMTQSPSSLSASVGDRVTITCRASQSISSYLNWYQQKPGKAPKLLIYAASSLQSGVPSRFSGSGSGTDFTLTISSLQPEDFATYYCQQYFSPPYTFGQGTKVEIK
notes: also called Fab of I3RB35
A word on the Kd: it is the free concentration of one partner at which half of the binding sites on the other are occupied at equilibrium, for simple one-to-one binding. For orientation: koff means the rate constant with which the complex falls apart. One may read the kon as the rate constant with which the complex forms. With B1, in [1], the Kd was found to be 6.3 nM, the koff worked out at 0.00245 s⁻¹ and the kon turned out to be 387000 M⁻¹ s⁻¹. In assay [2], the Kd was 1.2 nM.

B2: I3RB21 (antibody, IgG1, V domains shown)
VH: QVQLVQSGAEVKKPGSSVKVSCKASGGTFSSYAISWVRQAPGQGLEWMGGIIPIFGTANYAQKFQGRVTITADESTSTAYMELSSLRSEDTAVYYCAREGWWGQGKFDYWGQGTLVTVSS
VL: EIVLTQSPATLSLSPGERATLSCRASQSVANFLAWYQQKPGQAPRLLIYAASNRATGIPARFSGSGSGTDFTLTISSLEPEDFAVYYCQQYFHWPYTFGQGTKVEIK
notes: IgG1
With B2, in assay [3], the Kd is 2.19 nM, the koff worked out at 0.00114 s⁻¹ and the kon was found to be 521000 M⁻¹ s⁻¹. Also, the binding result in assay [4] is listed as “binds”.

B3: I3RB217 (antibody, human IgG4 S228P, kappa, F234A L235A, V domains shown)
VH: EVQLVQSGAEVKKPGESLKISCKGSGYSFTSYWISWVRQMPGKGLEWMGIIDPSDSDTRYSPSFQGQVTISADKSISTAYLQWSSLKASDTAMYYCARGDGSTDLDYWGQGTLVTVSS
VL: EIVLTQSPGTLSLSPGERATLSCRASQSVSSSYLAWYQQKPGQAPRLLIYGASSRATGIPDRFSGSGSGTDFTLTISRLEPEDFAVYYCQQDYGFPWTFGQGTKVEIKR
With B3, the “IC50 (read off the curve): IL-3-induced CD123/CD131 heteromerization (RLU)” value in assay [5] is around 0.1 µg/mL.

B4: I3RB119 (Fab, V domains shown)
VH: EVQLVQSGAEVKKPGESLKISCKGSGYSFTSYWISWVRQMPGKGLEWMGIIDPSDSDTRYSPSFQGQVTISADKSISTAYLQWSSLKASDTAMYYCARGDGSTDLDYWGQGTLVTVSS
VL: EIVLTQSPGTLSLSPGERATLSCRASQSVSSSYLAWYQQKPGQAPRLLIYGASSRATGIPDRFSGSGSGTDFTLTISRLEPEDFAVYYCQQDYGFPWTFGQGTKVEIK
notes: also called Fab I3RB119; I3RB18 Fab
In the case of B4, the Kd was above 11.9 nM in assay [6]; 0.367 nM in assay [7]; 0.293 nM in assay [9]; 1.8 nM in assay [1]; 0.4 nM in assay [10]; above 15 nM in [11]. For the same molecule, the “fold weaker than to human CD123 SP1” value in assay [8] is above 10 fold. Moreover, in assay [1], the koff was 0.000891 s⁻¹. For the same molecule, the kon in [1] was found to be 493000 M⁻¹ s⁻¹.

B5: I3RB25 (antibody, V domains shown)
VH: QVQLVQSGAEVKKPGSSVKVSCKASGGTFSSYGISWVRQAPGQGLEWMGGISAIFGNANYAQKFQGRVTITADESTSTAYMELSSLRSEDTAVYYCARRFKWWESYFDYWGQGTLVTVSS
VL: not shown
Regarding B5, the binding result in [12], in [13] and in assay [14] was “no binding (tested: 10 µg/mL)” in each case.
